The source of these data is patent publication US12558381B2, “Development of amnion-like tissue from human pluripotent stem cells” (THE REGENTS OF THE UNIVERSITY OF MICHIGAN, priority 2016, dated 2026).

The test relates to hPSCs cultured in Gel-3D. Briefly: hPSC amniogenesis assay (Gel-3D culture), requirement of BMP-SMAD signalling. It is filed as cell-based, human. From the text:
Implantation-Like Niche Described herein is a biomimicry approach to engineer a biomaterial-based in vitro hPSC culture system for efficient generation of early human amniotic tissue. Specifically, a biomimetic implantation-like niche for cultured hPSCs was constructed by implementing two major biophysical factors seen in the in vivo amniogenic niche: a three-dimensional (3D) extracellular matrix (ECM) that is provided by the basement membrane surrounding the epiblast during implantation 1l; and a soft tissue bed provided by the uterine wall and trophoblast to support the developing amnion (FIG. 1a,b). mTeSR1 medium and basement membrane matrix (Geltrex) was used to render the culture permissive for pluripotency maintenance. In this culture system, H9 human embryonic stem cells (hESCs) were plated as single cells at 30,000 cells cm^2 onto a thick, soft gel bed of Geltrex (with thickness 100 μm, bulk Young's modulus 900 Pa, coated on a glass coverslip), in mTeSR1 medium supplemented with the ROCK inhibitor Y2763212 (FIG. 1b). At 24 h (day 1), medium containing Y27632 was replaced by fresh mTeSR1 supplemented with 4% (v/v) Geltrex to establish a 3D implantation-like niche (referred to henceforth as the ‘Gel-3D’ condition). To assess the effect of ECM dimensionality and matrix rigidity, respectively, several modifications of this Gel-3D condition were tested (FIG. 1b). First, the Geltrex supplement was excluded from the medium, with the gel bed retained (referred to henceforth as the ‘Gel-2D’ condition). Second, the soft gel bed was replaced by a 1% Geltrex-coated glass coverslip (referred to henceforth as the ‘Glass-3D’ condition). Finally, a standard 2D culture, using a 1% Geltrex-coated glass coverslip (referred to henceforth as the ‘Glass-2D’ condition), was examined as a control that maintains hPSC self-renewal. Culture medium was replenished daily. Analyses were performed at day 5 unless otherwise noted (FIG. 1b). […]

Regarding `c1ccc2c(-c3cnn4cc(-c5ccc(N6CCNCC6)cc5)cnc34)ccnc2c1` [LDN193189, reference compound], the hPSC-amnion development entry (hPSCs cultured in Gel-3D, treatment on day 2 alone or on both days 2 and 3, FIG. 5d) is on record as “inhibited hPSC-amnion development”.

B1: NOGGIN: a protein that antagonizes BMP2/4/7 (protein, UniProt Q13253 28-232, looked up)
Noggin: QHYLHIRPAPSDNLPLVDLIEHPDPIFDPKEKDLNETLLRSLLGGHYDPGFMATSPPEDRPGGGGGAAGGAEDLAELDQLLRQRPSGAMPSEIKGLEFSEGLAQGKKQRLSKKLRRKLQMWLWSQTFCPVLYAWNDLGSRFWPRYVKVGSCFSKRSCSVPEGMVCKPSKSVHLTVLRWRCQRRGGQRCGWIPIQYPIISECKCSC
As to B1, for the setting “hPSCs in Gel-3D, treatment with NOGGIN”, the “development of hPSC-amnion” value is on record as “inhibited”. The amniogenic differentiation result (restatement in Example 2 of the BMP-SMAD requirement for amniogenesis) is “inhibit amniogenic differentiation”.
